# Experimental data from IntAct's records for PubMed 29892012.
# B1: Ribosome assembly protein METTL17, mitochondrial (Homo sapiens), Q9H7H0 (parent)
# chain: MAAALKCLLTLGRWCPGLGVAPQARALAALVPGVTQVDNKSGFLQKRPHRQHPGILKLPHVRLPQALANGAQLLLLGSAGPTMENQVQTLTSYLWSRHLPVEPEELQRRARHLEKKFLENPDLSQTEEKLRGAVLHALRKTTYHWQELSYTEGLSLVYMAARLDGGFAAVSRAFHEIRARNPAFQPQTLMDFGSGTGSVTWAAHSIWGQSLREYMCVDRSAAMLVLAEKLLKGGSESGEPYIPGVFFRQFLPVSPKVQFDVVVSAFSLSELPSKADRTEVVQTLWRKTGHFLVLVENGTKAGHSLLMDARDLVLKGKEKSPLDPRPGFVFAPCPHELPCPQLTNLACSFSQAYHPIPFSWNKKPKEEKFSMVILARGSPEEAHRWPRITQPVLKRPRHVHCHLCCPDGHMQHAVLTARRHGRDLYRCARVSSWGDLLPVLTPSAFPPSTAQDPSES
# partner: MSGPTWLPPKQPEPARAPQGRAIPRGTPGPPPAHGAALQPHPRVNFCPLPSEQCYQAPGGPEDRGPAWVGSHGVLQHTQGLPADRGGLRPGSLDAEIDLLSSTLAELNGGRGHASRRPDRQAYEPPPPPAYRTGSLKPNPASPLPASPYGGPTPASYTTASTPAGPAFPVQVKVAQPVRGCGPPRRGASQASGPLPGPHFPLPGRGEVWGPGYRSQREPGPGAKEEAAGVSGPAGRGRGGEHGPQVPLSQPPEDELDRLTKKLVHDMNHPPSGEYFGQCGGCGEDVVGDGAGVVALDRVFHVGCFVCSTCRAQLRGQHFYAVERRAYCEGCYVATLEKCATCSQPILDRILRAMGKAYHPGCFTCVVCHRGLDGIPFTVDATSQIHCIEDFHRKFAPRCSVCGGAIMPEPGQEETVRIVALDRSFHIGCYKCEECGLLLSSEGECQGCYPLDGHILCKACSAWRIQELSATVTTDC
# B2: Coiled-coil domain-containing protein 120 (Homo sapiens), Q96HB5-4 (parent)
# chain: MRREPRYQGQVGPDIHTDSERTLSSHQPRPLDSTKMEVKGQLISSPTFNAPAALFGEAAPQVKSERLRGLLDRQRTLQEALSLKLQELRKVCLQEAELTGQLPPECPLEPGERPQLVRRRPPTARAYPPPHPNQAHHSLCPAEELALEALEREVSVQQQIAAAARRLALAPDLSTEQRRRRRQVQADALRRLHELEEQLRDVRARLGLPVLPLPQPLPLSTGSVITTQGVCLGMRLAQLSQEDVVLHSESSSLSESGASHDNEEPHGCFSLAERPSPPKAWDQLRAVSGGSPERRTPWKPPPSDLYGDLKSRRNSVASPTSPTRSLPRSASSFEGRSVPATPVLTRGAGPQLCKPEGLHSRQWSGSQDSQMGFPRADPASDRASLFVARTRRSNSSEALLVDRAAGGGAGSPPAPLAPSASGPPVCKSSEVLYERPQPTPAFSSRTAGPPDPPRAARPSSAAPASRGAPRLPPVCGDFLLDYSLDRGLPRSGGGTGWGELPPAAEVPGPLSRRDGLLTMLPGPPPVYAADSNSPLLRTKDPHTRATRTKPCGLPPEAAEGPEVHPNPLLWMPPPTRIPSAGERSGHKNLALEGLRDWYIRNSGLAAGPQRRPVLPSVGPPHPPFLHARCYEVGQALYGAPSQAPLPHSRSFTAPPVSGRYYADFLYPPELSARLSDLTLEGEQSSSSDTQTPGTLV
# B3: Enhancer of mRNA-decapping protein 3 (Homo sapiens), Q96F86 (parent)
# chain: MATDWLGSIVSINCGDSLGVYQGRVSAVDQVSQTISLTRPFHNGVKCLVPEVTFRAGDITELKILEIPGPGDNQHFGDLHQTELGPSGAGCQVGINQNGTGKFVKKPASSSSAPQNIPKRTDVKSQDVAVSPQQQQCSKSYVDRHMESLSQSKSFRRRHNSWSSSSRHPNQATPKKSGLKNGQMKNKDDECFGDDIEEIPDTDFDFEGNLALFDKAAVFEEIDTYERRSGTRSRGIPNERPTRYRHDENILESEPIVYRRIIVPHNVSKEFCTDSGLVVPSISYELHKKLLSVAEKHGLTLERRLEMTGVCASQMALTLLGGPNRLNPKNVHQRPTVALLCGPHVKGAQGISCGRHLANHDVQVILFLPNFVKMLESITNELSLFSKTQGQQVSSLKDLPTSPVDLVINCLDCPENVFLRDQPWYKAAVAWANQNRAPVLSIDPPVHEVEQGIDAKWSLALGLPLPLGEHAGRIYLCDIGIPQQVFQEVGINYHSPFGCKFVIPLHSA
# Variants of: B1
# Details: with trip6_human TRIP6, Q15654
row,Variant,effect of a mutation on the interaction
1,R212H,with no effect

# Variants of: B2
# Details: with cyh2_human CYTH2, Q99418
# Sequence of cyh2_human CYTH2, Q99418 (Q99418 whole entry): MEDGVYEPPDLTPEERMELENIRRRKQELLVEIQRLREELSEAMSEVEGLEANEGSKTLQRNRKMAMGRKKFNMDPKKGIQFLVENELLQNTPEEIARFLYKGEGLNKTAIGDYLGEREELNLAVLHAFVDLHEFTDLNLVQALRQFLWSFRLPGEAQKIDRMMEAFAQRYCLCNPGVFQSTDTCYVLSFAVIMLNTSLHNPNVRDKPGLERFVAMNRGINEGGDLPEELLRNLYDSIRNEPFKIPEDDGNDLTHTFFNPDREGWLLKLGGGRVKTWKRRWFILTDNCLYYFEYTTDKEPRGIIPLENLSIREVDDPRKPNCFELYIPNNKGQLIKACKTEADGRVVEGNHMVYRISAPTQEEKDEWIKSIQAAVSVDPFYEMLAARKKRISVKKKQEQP
row,Variant,effect of a mutation on the interaction
1,R346W,with no effect

# Variants of: B2
# Details: with mdfi_human MDFI
row,Variant,effect of a mutation on the interaction
1,R346W,with no effect

# Variants of: B2
# Details: with k1h1_human KRT31, Q15323
# Sequence of k1h1_human KRT31, Q15323 (Q15323 whole entry): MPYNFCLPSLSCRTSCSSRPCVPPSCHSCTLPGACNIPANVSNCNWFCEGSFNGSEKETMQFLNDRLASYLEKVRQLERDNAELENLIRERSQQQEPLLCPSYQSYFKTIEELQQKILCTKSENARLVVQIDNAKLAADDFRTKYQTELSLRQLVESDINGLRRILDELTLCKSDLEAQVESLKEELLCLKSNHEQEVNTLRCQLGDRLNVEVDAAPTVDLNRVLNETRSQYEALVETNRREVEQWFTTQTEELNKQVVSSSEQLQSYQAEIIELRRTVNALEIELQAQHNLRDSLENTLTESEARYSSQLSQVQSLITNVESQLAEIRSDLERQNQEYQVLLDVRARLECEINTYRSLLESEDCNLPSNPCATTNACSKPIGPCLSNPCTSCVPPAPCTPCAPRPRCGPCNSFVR
row,Variant,effect of a mutation on the interaction
1,R346W,with no effect

# Variants of: B2
# Details: with KRT15, P19012
# Sequence of KRT15, P19012 (P19012 whole entry): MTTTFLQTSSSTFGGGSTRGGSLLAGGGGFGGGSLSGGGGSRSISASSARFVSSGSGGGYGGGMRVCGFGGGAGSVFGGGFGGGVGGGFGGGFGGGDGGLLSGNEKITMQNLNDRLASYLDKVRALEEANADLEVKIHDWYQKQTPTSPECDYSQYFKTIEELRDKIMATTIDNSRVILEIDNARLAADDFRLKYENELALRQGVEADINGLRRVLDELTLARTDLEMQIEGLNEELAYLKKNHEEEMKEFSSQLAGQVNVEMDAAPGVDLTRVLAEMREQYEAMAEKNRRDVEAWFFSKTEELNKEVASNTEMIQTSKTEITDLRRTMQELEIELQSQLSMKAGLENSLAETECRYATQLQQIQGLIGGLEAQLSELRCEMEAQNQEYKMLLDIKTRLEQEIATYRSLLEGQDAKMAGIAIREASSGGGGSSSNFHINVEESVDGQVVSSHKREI
row,Variant,effect of a mutation on the interaction
1,R346W,with no effect

# Variants of: B3
# Details: with ddx6_human DDX6, P26196
# Sequence of ddx6_human DDX6, P26196 (P26196 whole entry): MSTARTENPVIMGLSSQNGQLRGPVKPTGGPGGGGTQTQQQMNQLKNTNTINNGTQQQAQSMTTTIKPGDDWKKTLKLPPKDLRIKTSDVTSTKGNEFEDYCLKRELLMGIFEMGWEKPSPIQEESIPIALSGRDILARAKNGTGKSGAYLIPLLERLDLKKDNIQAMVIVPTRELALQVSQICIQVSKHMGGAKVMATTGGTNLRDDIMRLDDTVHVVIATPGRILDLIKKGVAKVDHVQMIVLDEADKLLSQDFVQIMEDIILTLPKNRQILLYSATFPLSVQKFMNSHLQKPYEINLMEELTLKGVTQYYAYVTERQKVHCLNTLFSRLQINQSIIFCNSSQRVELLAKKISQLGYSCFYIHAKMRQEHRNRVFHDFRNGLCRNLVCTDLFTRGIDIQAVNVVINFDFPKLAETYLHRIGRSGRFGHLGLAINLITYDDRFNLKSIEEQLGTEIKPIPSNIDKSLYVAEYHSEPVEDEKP
row,Variant,effect of a mutation on the interaction
1,F213L,disrupting interaction strength
